Tests used:
[1] = target: T1, HLA-A*02:01 on T2 cells with no peptide loaded (human); assay: FACS; scFv phage on T2 cells without peptide
T1 construct: TAP-deficient T2 cells, no peptide loaded from outside; also called T2 cells without peptide loading
Protocol: (§1) Individual phage clones from enriched phage display panning pools against PSA146/HLA-A*02:01 complex were incubated in the coated plates. Binding of the phage clones was detected by HRP-conjugated anti-M13 antibodies and developed using HRP substrate. The absorbance was read at 450 nm. […] Then, unique antibody clones were identified through DNA sequencing of ELISA-positive clones. […] T2 cells loaded with different peptides and β2M were first stained with purified scFv phage clones, followed by staining with a mouse anti-M13 mAb, and finally R-PE conjugated horse anti-mouse IgG from Vector Labs. Each step of the staining was performed for between 30-60 minutes on ice and the cells were washed twice between stainings. All 16 clones recognized PSA146-loaded T2 cells specifically. FIG. 3 provides examples of PSA146/HLA-A*02:01 specific phage clone binding to peptide-loaded T2 cells through FACS.

[2] = target: T2, control peptide A2E-13/HLA-A*02:01 complex on T2 cells (member of the P19 mixture) (human); assay: FACS; scFv phage on T2 cells loaded with the P19 mixture
T2 construct: Loaded on T2 cells as part of the mixture of 19 control peptides
Protocol: as §1

[3] = target: T3, control peptide A2E-2/HLA-A*02:01 complex on T2 cells (member of the P19 mixture) (human); assay: as above
T3 construct: Loaded on T2 cells as part of the mixture of 19 control peptides
Protocol: as §1

[4] = target: T4, control peptide A2E-21/HLA-A*02:01 complex on T2 cells (member of the P19 mixture) (human); assay: as above
T4 construct: Loaded on T2 cells as part of the mixture of 19 control peptides
Protocol: as §1

[5] = target: T5, control peptide A2E-16/HLA-A*02:01 complex on T2 cells (member of the P19 mixture) (human); assay: as above
T5 construct: Loaded on T2 cells as part of the mixture of 19 control peptides
Protocol: as §1

[6] = target: T6, control peptide A2E-10/HLA-A*02:01 complex on T2 cells (member of the P19 mixture) (human); assay: as above
T6 construct: Loaded on T2 cells as part of the mixture of 19 control peptides
Protocol: as §1

[7] = target: T7, control peptide A2E-1/HLA-A*02:01 complex on T2 cells (member of the P19 mixture) (human); assay: as above
T7 construct: Loaded on T2 cells as part of the mixture of 19 control peptides
Protocol: as §1

[8] = target: T8, control peptide A2E-5/HLA-A*02:01 complex on T2 cells (member of the P19 mixture) (human); assay: as above
T8 construct: Loaded on T2 cells as part of the mixture of 19 control peptides
Protocol: as §1

[9] = target: T9, control peptide A2E-9/HLA-A*02:01 complex on T2 cells (member of the P19 mixture) (human); assay: as above
T9 construct: Loaded on T2 cells as part of the mixture of 19 control peptides
Protocol: as §1

[10] = target: T10, control peptide A2E-14/HLA-A*02:01 complex on T2 cells (member of the P19 mixture) (human); assay: as above
T10 construct: Loaded on T2 cells as part of the mixture of 19 control peptides
Protocol: as §1

[11] = target: T11, control peptide A2E-8/HLA-A*02:01 complex on T2 cells (member of the P19 mixture) (human); assay: as above
T11 construct: Loaded on T2 cells as part of the mixture of 19 control peptides
Protocol: as §1

[12] = target: T12, control peptide A2E-11/HLA-A*02:01 complex on T2 cells (member of the P19 mixture) (human); assay: as above
T12 construct: Loaded on T2 cells as part of the mixture of 19 control peptides
Protocol: as §1

[13] = target: T13, control peptide A2E-3/HLA-A*02:01 complex on T2 cells (member of the P19 mixture) (human); assay: as above
T13 construct: Loaded on T2 cells as part of the mixture of 19 control peptides
Protocol: as §1

[14] = target: T14, control peptide A2E-15/HLA-A*02:01 complex on T2 cells (member of the P19 mixture) (human); assay: as above
T14 construct: Loaded on T2 cells as part of the mixture of 19 control peptides
Protocol: as §1

[15] = target: T15, control peptide A2E-4/HLA-A*02:01 complex on T2 cells (member of the P19 mixture) (human); assay: as above
T15 construct: Loaded on T2 cells as part of the mixture of 19 control peptides
Protocol: as §1

[16] = target: T16, control peptide A2E-17/HLA-A*02:01 complex on T2 cells (member of the P19 mixture) (human); assay: as above
T16 construct: Loaded on T2 cells as part of the mixture of 19 control peptides
Protocol: as §1

[17] = target: T17, control peptide A2E-6/HLA-A*02:01 complex on T2 cells (member of the P19 mixture) (human); assay: as above
T17 construct: Loaded on T2 cells as part of the mixture of 19 control peptides
Protocol: as §1

[18] = target: T18, control peptide A2E-23/HLA-A*02:01 complex on T2 cells (member of the P19 mixture) (human); assay: as above
T18 construct: Loaded on T2 cells as part of the mixture of 19 control peptides
Protocol: as §1

[19] = target: T19, control peptide A2E-19/HLA-A*02:01 complex on T2 cells (member of the P19 mixture) (human); assay: as above
T19 construct: Loaded on T2 cells as part of the mixture of 19 control peptides
Protocol: as §1

[20] = target: T20, control peptide A2E-7/HLA-A*02:01 complex on T2 cells (member of the P19 mixture) (human); assay: as above
T20 construct: Loaded on T2 cells as part of the mixture of 19 control peptides
Protocol: as §1

[21] = target: T21, PSA 146-154 peptide/HLA-A*02:01 complex on the cell surface (human); assay: FACS; scFv phage on PSA146-loaded live T2 cells
T21 construct: also called PSA146/HLA-A*02:01; PSA146-loaded T2 cells
Protocol: as §1

B1: PSA146/HLA-A*02:01-specific scFv phage clone #8 (scFv, V domains shown)
VH: QVQLQQWGAGLLKPSETLSLTCAVKGGSFSDYYWSWIRQPPGKGLEWIGEINHSGGTNYNPSLKSRVTISVDTSKNQFSLKLLSVTAADTAVYYCARYNEYGSGYDKWGQGTLVTVSS
VL: QSVLTQPPSVSAAPGQKVTISCSGSSYNIGNNYVSWYQQLPGTAPKLLIYDNNKRPSGIPDRFSGSKSGTSATLGITGLQTGDEAEYYCGTWESSLSAYVFGTGTKVTVLG
[1]
  binding result: no binding
[2]
  binding result: no binding
[3]
  binding result: no binding
[4]
  binding result: no binding
[5]
  binding result: no binding
[6]
  binding result: no binding
[7]
  binding result: no binding
[8]
  binding result: no binding
[9]
  binding result: no binding
[10]
  binding result: no binding
[11]
  binding result: no binding
[12]
  binding result: no binding
[13]
  binding result: no binding
[14]
  binding result: no binding
[15]
  binding result: no binding
[16]
  binding result: no binding
[17]
  binding result: no binding
[18]
  binding result: no binding
[19]
  binding result: no binding
[20]
  binding result: no binding
[21]
  binding result: binds

Reference: US20200087400A1 (EUREKA THERAPEUTICS, published 2020)
